Here are results for one molecule from US20210063414A1 (Dana-Farber, published 2021).

Experiment [1] concerns the target T1, Integrin beta-1 (Itgb1) of MLO-Y4 cells (mouse, UniProt P09055 21-798).
T1 construct: whole, on cells; Endogenous protein of the mouse osteocyte-like cell line, cross-linked on intact cells; also called β1 integrin; integrin β1
As to the kind of experiment: DTSSP cross-linking on MLO-Y4 cells, his-tag pull-down, TMT mass spectrometry; irisin channel.
Protocol: (§1) Cells were homogenized and immunoprecipitated using 6 his-tag agarose after treatment of DTSSP cross-linker. Immunoprecipitated proteins were labeled with TMT and analyzed by mass spectrometer.
(§2) A chemical cross-linker was then added and incubated with cells, and the ligands were re-purified with (presumptive) cellular proteins covalently attached. The cross-links were then reversed and the products were subjected to quantitative Mass Spectrometry (FIG. 2A).

The target of experiment [2] is T2, Integrin beta-5 (Itgb5) of MLO-Y4 cells (mouse, UniProt O70309 24-798).
T2 construct: whole, on cells; also called ITB5_MOUSE
T2 sequence (looked up): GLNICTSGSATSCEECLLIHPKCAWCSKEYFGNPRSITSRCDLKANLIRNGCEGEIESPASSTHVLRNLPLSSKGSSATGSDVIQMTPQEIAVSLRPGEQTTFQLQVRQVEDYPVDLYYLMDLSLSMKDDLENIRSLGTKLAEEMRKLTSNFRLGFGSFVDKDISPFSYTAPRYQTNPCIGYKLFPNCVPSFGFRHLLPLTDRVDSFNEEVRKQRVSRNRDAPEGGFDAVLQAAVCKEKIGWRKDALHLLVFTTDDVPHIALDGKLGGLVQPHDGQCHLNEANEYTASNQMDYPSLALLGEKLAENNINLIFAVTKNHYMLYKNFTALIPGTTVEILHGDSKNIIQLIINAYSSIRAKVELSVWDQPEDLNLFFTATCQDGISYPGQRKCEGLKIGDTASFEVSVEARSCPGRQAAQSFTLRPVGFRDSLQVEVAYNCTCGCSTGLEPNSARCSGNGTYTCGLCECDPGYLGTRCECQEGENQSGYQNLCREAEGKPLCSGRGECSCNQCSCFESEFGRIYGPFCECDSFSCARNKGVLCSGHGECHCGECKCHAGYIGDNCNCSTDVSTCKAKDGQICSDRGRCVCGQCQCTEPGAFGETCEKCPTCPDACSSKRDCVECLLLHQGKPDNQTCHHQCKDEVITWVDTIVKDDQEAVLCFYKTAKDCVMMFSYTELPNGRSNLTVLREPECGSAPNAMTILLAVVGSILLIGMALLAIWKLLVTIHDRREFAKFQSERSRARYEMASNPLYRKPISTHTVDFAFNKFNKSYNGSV
The description is as above.
Protocol: as §1, §2

The target of experiment [3] is T3, Integrin alpha-V (Itgav) of MLO-Y4 cells (mouse, UniProt P43406 31-1044).
T3 construct: whole, on cells
T3 sequence (looked up): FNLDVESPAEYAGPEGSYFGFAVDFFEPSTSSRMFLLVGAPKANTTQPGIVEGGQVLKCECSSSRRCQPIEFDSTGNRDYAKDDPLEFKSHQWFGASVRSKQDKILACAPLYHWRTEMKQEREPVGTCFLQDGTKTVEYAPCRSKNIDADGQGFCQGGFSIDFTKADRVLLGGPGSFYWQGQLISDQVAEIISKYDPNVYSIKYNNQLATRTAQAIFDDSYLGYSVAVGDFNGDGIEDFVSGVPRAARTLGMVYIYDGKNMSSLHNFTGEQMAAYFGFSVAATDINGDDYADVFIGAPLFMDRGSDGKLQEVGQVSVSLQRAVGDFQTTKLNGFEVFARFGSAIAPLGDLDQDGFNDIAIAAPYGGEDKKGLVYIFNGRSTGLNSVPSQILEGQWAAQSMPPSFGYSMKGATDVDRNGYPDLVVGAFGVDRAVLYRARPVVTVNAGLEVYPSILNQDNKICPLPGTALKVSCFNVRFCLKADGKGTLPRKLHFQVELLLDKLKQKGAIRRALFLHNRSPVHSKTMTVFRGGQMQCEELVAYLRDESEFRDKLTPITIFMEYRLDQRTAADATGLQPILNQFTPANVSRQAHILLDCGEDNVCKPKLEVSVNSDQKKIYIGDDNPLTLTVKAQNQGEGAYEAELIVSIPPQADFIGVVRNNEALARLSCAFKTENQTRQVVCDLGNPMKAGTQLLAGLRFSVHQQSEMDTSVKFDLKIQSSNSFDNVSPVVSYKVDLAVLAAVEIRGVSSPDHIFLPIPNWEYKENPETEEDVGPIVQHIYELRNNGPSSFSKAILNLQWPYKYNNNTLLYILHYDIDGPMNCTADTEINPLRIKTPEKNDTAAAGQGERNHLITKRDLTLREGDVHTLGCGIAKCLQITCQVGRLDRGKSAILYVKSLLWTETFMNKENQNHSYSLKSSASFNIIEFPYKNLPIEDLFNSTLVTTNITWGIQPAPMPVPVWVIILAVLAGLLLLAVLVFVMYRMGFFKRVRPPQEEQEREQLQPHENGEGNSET
The description is as above.
Protocol: as §1, §2

For experiment [4], the target named is T2, Integrin beta-5 (Itgb5) of MLO-Y4 cells. As to the kind of experiment: DTSSP cross-linking on MLO-Y4 cells, his-tag pull-down, TMT mass spectrometry; ratio to his-tag adipsin control.
Protocol: as §1, §2
Experiment [5] addresses T3, Integrin alpha-V (Itgav) of MLO-Y4 cells. Described as above.
Protocol: as §1, §2
The target in experiment [6] is T1, Integrin beta-1 (Itgb1) of MLO-Y4 cells. Briefly: DTSSP cross-linking of his-tag ligand on MLO-Y4 cells, his-tag pull-down, TMT quantitative mass spectrometry; ratio to his-tag adipsin control.
Protocol: as §1, §2

T1 sequence (P09055 21-798): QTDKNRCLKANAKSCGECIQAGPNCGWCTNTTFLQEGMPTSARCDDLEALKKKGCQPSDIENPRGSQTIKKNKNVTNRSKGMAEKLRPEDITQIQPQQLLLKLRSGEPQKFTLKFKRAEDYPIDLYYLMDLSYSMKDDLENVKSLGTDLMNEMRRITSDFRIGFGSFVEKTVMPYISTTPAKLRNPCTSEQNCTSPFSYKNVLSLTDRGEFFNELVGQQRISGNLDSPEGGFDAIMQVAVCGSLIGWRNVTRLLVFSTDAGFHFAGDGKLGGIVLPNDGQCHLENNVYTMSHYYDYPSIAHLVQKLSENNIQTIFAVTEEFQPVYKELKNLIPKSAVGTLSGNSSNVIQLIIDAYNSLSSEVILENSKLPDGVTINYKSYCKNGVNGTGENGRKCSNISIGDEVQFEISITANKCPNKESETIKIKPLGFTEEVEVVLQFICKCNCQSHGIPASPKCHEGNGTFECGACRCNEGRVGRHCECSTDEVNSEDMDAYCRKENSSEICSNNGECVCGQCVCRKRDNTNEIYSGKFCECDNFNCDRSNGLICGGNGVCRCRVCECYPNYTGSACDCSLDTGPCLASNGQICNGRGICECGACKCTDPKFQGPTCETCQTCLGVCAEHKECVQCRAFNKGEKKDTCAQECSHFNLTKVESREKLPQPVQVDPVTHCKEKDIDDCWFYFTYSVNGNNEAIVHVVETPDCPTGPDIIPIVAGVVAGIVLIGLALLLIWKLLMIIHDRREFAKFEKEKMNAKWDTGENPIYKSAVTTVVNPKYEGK

B1: His-tag recombinant irisin (irisin (human/mouse) with a C-terminal 10 his tag, produced in HEK293 cells) (ligand)
chain: DSPSAPVNVTVRHLKANSAVVSWDVLEDEVVIGFAISQQKKDVRMLRFIQEVNTTTRSCALWDLEEDTEYIVHVQAISIQGQSPASEPVLFKTPREAEKMASKNKDEVTMKE
notes: Made in mammalian cells, glycosylated; Used in cell culture and cross-linking experiments; also called 10 His-tag irisin; his-tag irisin; not shown: C-terminal 10 his tag
Turning to B1, the “summed signal-to-noise value for TMT channel” value in experiment [1] turned out to be 858; in experiment [2], 215; in experiment [3] it was 60.6. For the same molecule, the “irisin/adipsin (TMT ratio)” value in experiment [4] stood at 1.45; in experiment [5], 1.11. Moreover, in experiment [6], the “irsin/adipsin (TMT ratio)” value was 3.44.
